According to patent US20110177065A1:

Molecular target: IL-1 receptor (human) (UniProt P14778)
Assay: cell-based or functional assay

UniProt P14778, sequence (P14778 18-569): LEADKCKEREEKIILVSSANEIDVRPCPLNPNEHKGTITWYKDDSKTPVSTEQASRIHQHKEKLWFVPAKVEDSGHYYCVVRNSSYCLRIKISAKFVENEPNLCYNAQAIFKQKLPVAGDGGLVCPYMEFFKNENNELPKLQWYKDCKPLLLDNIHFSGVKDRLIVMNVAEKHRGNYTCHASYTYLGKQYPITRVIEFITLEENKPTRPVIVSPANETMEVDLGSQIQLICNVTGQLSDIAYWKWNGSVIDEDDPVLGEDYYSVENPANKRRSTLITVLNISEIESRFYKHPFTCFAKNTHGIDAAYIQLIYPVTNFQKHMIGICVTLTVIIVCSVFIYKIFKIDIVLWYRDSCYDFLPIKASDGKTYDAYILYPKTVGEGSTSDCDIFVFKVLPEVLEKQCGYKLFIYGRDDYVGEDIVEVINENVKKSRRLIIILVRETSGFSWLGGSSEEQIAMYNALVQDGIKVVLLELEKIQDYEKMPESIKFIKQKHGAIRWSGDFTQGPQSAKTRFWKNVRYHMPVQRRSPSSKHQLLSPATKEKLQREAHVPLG

Substance: IL-1 receptor antagonist (IL-1Ra) (from UniProt P18510 26-177) (ligand)
- antiviral activity of IFN-gamma (endpoint of 50% protection from viral cytopathic effect, human WISH cells): 125 IU/ml
- level of IL-18BP in HaCat culture supernatants after IFN-gamma (ELISA): 0.35 ng/mL
